The target in this data set is TRF2BH (basic region + TRFH) (UniProt Q15554 45-289). Description: EMSA.
Chain of TRF2BH (basic region + TRFH) (Q15554 45-289): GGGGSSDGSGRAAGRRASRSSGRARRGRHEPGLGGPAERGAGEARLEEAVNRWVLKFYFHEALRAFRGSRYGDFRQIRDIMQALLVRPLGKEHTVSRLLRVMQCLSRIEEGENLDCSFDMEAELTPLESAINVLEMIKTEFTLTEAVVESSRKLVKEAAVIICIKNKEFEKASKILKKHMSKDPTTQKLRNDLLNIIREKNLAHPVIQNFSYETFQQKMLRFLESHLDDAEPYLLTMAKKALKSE

Regarding TTAGGGTTAGGGTTAGGGTTAGGGTTAGGGTTAGGGTTAGGG (structured_DNA) [T7], the binding result is listed as “binds”.
